These results are taken from paper PMC3737555, “Structural insights into the targeting of mRNA GU-rich elements by the three RRMs of CELF1”.

Data set [1] relates to CELF1 RRM23 (Xenopus). Nature of the data set: ITC. Particulars: ITC: 25 mM potassium phosphate, 100 mM NaCl, pH 7.0, 25 C, 12.5 uM protein, 125 uM RNA in syringe; NMR: same buffer, 298 K, ~200-250 uM protein.
Data set [2] deals with CELF1 RRM1 (Xenopus, UniProt O57406 16-99). The data set is described as follows: NMR PRE; ITC: 25 mM potassium phosphate, 100 mM NaCl, pH 7.0, 25 C, 12.5 uM protein, 125 uM RNA in syringe; NMR: same buffer, 298 K, ~200-250 uM protein. As to conditions: protein: recombinant; tags: His; label: MTSL on 5' 4-thiouridine; single strand.
The target of data set [3] is T1, CELF1 RRM123 (Xenopus, UniProt O57406 1-214+385-489, internal_change). Nature of the data set: ITC; n=0.67; ITC: 25 mM potassium phosphate, 100 mM NaCl, pH 7.0, 25 C, 12.5 uM protein, 125 uM RNA in syringe; NMR: same buffer, 298 K, ~200-250 uM protein. Particulars: protein: recombinant; tags: N-terminal His; single strand. A general note: In ITC the heat of successive injections is recorded.

Data set [4] deals with T1, CELF1 RRM123. The data set is described as follows: ITC; n=1.64; ITC: 25 mM potassium phosphate, 100 mM NaCl, pH 7.0, 25 C, 12.5 uM protein, 125 uM RNA in syringe; NMR: same buffer, 298 K, ~200-250 uM protein. Particulars: protein: recombinant; tags: N-terminal His; single strand.
For data set [5], the target named is CELF1 full-length wild type (Xenopus, UniProt O57406 1-489). The data set is described as follows: NMR; extensive line broadening; ITC: 25 mM potassium phosphate, 100 mM NaCl, pH 7.0, 25 C, 12.5 uM protein, 125 uM RNA in syringe; NMR: same buffer, 298 K, ~200-250 uM protein. As to conditions: protein: recombinant, tags: N-terminal His.
Data set [6] deals with T1, CELF1 RRM123. Nature of the data set: ITC; n=0.85; ITC: 25 mM potassium phosphate, 100 mM NaCl, pH 7.0, 25 C, 12.5 uM protein, 125 uM RNA in syringe; NMR: same buffer, 298 K, ~200-250 uM protein. As to conditions: protein: recombinant; tags: N-terminal His; single strand.
Data set [7] concerns the target T1, CELF1 RRM123. The data set is described as follows: ITC; n=0.79; ITC: 25 mM potassium phosphate, 100 mM NaCl, pH 7.0, 25 C, 12.5 uM protein, 125 uM RNA in syringe; NMR: same buffer, 298 K, ~200-250 uM protein. As to conditions: protein: recombinant; tags: N-terminal His; single strand.
In data set [8] the target is T1, CELF1 RRM123. The data set is described as follows: ITC; n=1.45; ITC: 25 mM potassium phosphate, 100 mM NaCl, pH 7.0, 25 C, 12.5 uM protein, 125 uM RNA in syringe; NMR: same buffer, 298 K, ~200-250 uM protein. As to conditions: protein: recombinant; tags: N-terminal His; single strand.
Data set [9] deals with T1, CELF1 RRM123. The data set is described as follows: ITC; n=1.19; text gives 1.50 +/- 0.28; ITC: 25 mM potassium phosphate, 100 mM NaCl, pH 7.0, 25 C, 12.5 uM protein, 125 uM RNA in syringe; NMR: same buffer, 298 K, ~200-250 uM protein. As to conditions: protein: recombinant; tags: N-terminal His; single strand.
For data set [10], the target named is T1, CELF1 RRM123. The data set is described as follows: ITC; n=0.83; ITC: 25 mM potassium phosphate, 100 mM NaCl, pH 7.0, 25 C, 12.5 uM protein, 125 uM RNA in syringe; NMR: same buffer, 298 K, ~200-250 uM protein. Particulars: protein: recombinant; tags: N-terminal His; hairpin, 4 bp stem, single-stranded 5' and 3' tails.
Data set [11] concerns the target T1, CELF1 RRM123. Nature of the data set: NMR PRE; strongest PRE in RRM2; ITC: 25 mM potassium phosphate, 100 mM NaCl, pH 7.0, 25 C, 12.5 uM protein, 125 uM RNA in syringe; NMR: same buffer, 298 K, ~200-250 uM protein. Particulars: protein: recombinant; tags: N-terminal His; label: MTSL on 5' 4-thiouridine; single strand.
In data set [12] the target is T1, CELF1 RRM123. The data set is described as follows: NMR PRE; strongest PRE in RRM3; ITC: 25 mM potassium phosphate, 100 mM NaCl, pH 7.0, 25 C, 12.5 uM protein, 125 uM RNA in syringe; NMR: same buffer, 298 K, ~200-250 uM protein. Particulars: protein: recombinant; tags: N-terminal His; label: MTSL on 3' 4-thiouridine; single strand.

T1 sequence (O57406 other isoform, or with tags, fused parts or gaps): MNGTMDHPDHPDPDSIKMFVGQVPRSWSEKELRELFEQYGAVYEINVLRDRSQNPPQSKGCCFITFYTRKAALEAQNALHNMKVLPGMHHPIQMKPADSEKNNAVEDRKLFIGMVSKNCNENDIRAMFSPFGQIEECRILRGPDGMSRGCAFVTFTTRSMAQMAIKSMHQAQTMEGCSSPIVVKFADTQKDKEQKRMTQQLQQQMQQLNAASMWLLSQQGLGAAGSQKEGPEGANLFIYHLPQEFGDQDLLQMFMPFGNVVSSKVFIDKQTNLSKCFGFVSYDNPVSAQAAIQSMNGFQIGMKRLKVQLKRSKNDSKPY
CELF1 full-length wild type, sequence (O57406 whole entry): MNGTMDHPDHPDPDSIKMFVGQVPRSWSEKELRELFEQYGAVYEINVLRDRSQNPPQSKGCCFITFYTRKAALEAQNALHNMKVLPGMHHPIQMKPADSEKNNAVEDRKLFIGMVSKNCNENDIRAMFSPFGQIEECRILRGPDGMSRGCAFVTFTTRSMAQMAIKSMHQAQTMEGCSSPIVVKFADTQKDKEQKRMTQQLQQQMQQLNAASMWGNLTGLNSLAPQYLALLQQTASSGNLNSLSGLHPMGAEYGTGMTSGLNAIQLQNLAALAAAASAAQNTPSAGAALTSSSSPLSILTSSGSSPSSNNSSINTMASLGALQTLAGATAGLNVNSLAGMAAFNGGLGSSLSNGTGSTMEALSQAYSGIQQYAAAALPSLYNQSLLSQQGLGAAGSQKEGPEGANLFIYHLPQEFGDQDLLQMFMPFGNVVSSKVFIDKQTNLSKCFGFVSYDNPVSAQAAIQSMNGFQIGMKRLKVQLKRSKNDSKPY
CELF1 RRM1, sequence (O57406 16-99): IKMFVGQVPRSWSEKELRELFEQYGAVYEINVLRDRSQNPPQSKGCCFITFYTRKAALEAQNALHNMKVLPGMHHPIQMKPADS

Broadly, the Kd is a measure of binding affinity in units of concentration. As to RNA with UGU(U) site used with RRM23, the Kd in data set [1] amounted to 520 nM.
Consider UUGU (ssRNA, 5'-terminal 4-thiouridine) [5'-U*UGU], for which the binding result in data set [2] is “binds”.
As to UGUUUUUUGUUUUGU (ssRNA) [EDEN-4U/2U], in data set [3], the Kd came to 980 ± 120 nM.
As to UGUUUUUUGU (ssRNA) [EDEN-4U], the Kd in data set [4] turned out to be 2080 ± 400 nM.
With UGUUUUGUUUUUUGU (ssRNA) [EDEN-2U/4U], in data set [5] (single strand), the binding result was “binds”. In addition, the Kd in [6] came out at 110 ± 20 nM.
For UGUAUGUGUUGUUUUAUGU (ssRNA) [EDEN19], the Kd in data set [7] was 330 ± 70 nM.
Turning to UGUUUGUUUGU (ssRNA) [EDEN11 (GRE)], the Kd in data set [8] stood at 2200 ± 300 nM.
With UGUUUUGUUUGU (ssRNA) [EDEN-2U/1U], the Kd in data set [9] worked out at 1490 ± 230 nM.
For UGUUUUGUUCCCGAGGACGGGUUGU (structured_RNA) [EDEN-2U/HL], the binding result in [5] (hairpin, 4 bp stem, single-stranded 5' and 3' tails) is on record as “binds”. The Kd in [10] was 550 ± 80 nM.
Regarding UUGUUUUGUUUUUUGU (ssRNA, additional 5'-terminal 4-thiouridine) [5'-U* EDEN-2U/4U], the binding result in data set [11] was “binds”.
On to UGUUUUGUUUUUUGUU (ssRNA, 3'-terminal 4-thiouridine (taken as an additional nucleotide; not explicit)) [3'-U* EDEN-2U/4U], for which the binding result in data set [12] is “binds”.
